Reference: paper PMC3799435, “Dissecting the interactions of SERRATE with RNA and DICER-LIKE 1 in Arabidopsis microRNA precursor processing” (Nucleic Acids Research, 2013)

Key:
SEΔ497-547 = target: T1, SEΔ497-547 (Arabidopsis thaliana, UniProt Q9ZVD0 1-720, del497-547); assay: SPR; 50 mM NaCl, 20 nM; as wild-type SE; SPR (Biacore T100): 20 mM Tris-HCl pH 7.0, 50 or 150 mM NaCl, 2 mM β-ME (0.005% P20 for SE variants); proteins 42-43 nM (Fig 2E), SE 20 nM (Fig 4), 16 nM DCL1 for complex; temperature not stated; settings: protein: recombinant; tags: N-terminal His6; vector also has inserted myc and Strep-tag II; label: 5'-biotin on strand 1; fork: 40 bp duplex; 20-nt 3' tail of strand 1 and 20-nt 5' tail of strand 2 unpaired; other end blunt
T1 sequence: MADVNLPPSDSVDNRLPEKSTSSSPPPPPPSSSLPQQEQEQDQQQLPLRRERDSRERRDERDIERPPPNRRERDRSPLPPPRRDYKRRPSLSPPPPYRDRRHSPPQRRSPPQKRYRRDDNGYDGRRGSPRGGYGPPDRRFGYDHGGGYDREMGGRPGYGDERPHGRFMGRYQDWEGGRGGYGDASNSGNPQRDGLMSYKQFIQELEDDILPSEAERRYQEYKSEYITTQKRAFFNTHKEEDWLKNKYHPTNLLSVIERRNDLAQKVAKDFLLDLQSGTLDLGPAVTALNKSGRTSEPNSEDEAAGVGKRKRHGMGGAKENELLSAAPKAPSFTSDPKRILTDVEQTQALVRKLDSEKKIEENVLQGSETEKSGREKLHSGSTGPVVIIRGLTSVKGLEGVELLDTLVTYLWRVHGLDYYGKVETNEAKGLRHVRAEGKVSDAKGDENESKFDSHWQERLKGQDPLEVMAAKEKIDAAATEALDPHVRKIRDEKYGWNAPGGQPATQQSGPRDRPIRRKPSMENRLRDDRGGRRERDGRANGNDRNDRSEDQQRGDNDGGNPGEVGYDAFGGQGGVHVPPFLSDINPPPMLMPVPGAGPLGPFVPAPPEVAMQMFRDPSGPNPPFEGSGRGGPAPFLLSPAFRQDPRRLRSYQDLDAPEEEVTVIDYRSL

DCL1;SE1-701 = DCL1;SE1-701 (Arabidopsis thaliana;Arabidopsis …, UniProt Q9SP32;Q9ZVD0 1-1909;1-701, |del702-720); assay: SPR; SE1-701 injected on preformed DCL1/RNA complex, 50 mM NaCl; as wild-type SE; SPR (Biacore T100): 20 mM Tris-HCl pH 7.0, 50 or 150 mM NaCl, 2 mM β-ME (0.005% P20 for SE variants); proteins 42-43 nM (Fig 2E), SE 20 nM (Fig 4), 16 nM DCL1 for complex; temperature not stated; settings: protein: recombinant;recombinant; tags: none (His6-StrepII-SUMOstar removed);N-terminal His6; vector also has inserted myc and Strep-tag II; label: 5'-biotin on strand 1; fork: 40 bp duplex; 20-nt 3' tail of strand 1 and 20-nt 5' tail of strand 2 unpaired; other end blunt
Chain of DCL1;SE1-701 (Q9SP32 whole entry, stated change not applied, one chain of several): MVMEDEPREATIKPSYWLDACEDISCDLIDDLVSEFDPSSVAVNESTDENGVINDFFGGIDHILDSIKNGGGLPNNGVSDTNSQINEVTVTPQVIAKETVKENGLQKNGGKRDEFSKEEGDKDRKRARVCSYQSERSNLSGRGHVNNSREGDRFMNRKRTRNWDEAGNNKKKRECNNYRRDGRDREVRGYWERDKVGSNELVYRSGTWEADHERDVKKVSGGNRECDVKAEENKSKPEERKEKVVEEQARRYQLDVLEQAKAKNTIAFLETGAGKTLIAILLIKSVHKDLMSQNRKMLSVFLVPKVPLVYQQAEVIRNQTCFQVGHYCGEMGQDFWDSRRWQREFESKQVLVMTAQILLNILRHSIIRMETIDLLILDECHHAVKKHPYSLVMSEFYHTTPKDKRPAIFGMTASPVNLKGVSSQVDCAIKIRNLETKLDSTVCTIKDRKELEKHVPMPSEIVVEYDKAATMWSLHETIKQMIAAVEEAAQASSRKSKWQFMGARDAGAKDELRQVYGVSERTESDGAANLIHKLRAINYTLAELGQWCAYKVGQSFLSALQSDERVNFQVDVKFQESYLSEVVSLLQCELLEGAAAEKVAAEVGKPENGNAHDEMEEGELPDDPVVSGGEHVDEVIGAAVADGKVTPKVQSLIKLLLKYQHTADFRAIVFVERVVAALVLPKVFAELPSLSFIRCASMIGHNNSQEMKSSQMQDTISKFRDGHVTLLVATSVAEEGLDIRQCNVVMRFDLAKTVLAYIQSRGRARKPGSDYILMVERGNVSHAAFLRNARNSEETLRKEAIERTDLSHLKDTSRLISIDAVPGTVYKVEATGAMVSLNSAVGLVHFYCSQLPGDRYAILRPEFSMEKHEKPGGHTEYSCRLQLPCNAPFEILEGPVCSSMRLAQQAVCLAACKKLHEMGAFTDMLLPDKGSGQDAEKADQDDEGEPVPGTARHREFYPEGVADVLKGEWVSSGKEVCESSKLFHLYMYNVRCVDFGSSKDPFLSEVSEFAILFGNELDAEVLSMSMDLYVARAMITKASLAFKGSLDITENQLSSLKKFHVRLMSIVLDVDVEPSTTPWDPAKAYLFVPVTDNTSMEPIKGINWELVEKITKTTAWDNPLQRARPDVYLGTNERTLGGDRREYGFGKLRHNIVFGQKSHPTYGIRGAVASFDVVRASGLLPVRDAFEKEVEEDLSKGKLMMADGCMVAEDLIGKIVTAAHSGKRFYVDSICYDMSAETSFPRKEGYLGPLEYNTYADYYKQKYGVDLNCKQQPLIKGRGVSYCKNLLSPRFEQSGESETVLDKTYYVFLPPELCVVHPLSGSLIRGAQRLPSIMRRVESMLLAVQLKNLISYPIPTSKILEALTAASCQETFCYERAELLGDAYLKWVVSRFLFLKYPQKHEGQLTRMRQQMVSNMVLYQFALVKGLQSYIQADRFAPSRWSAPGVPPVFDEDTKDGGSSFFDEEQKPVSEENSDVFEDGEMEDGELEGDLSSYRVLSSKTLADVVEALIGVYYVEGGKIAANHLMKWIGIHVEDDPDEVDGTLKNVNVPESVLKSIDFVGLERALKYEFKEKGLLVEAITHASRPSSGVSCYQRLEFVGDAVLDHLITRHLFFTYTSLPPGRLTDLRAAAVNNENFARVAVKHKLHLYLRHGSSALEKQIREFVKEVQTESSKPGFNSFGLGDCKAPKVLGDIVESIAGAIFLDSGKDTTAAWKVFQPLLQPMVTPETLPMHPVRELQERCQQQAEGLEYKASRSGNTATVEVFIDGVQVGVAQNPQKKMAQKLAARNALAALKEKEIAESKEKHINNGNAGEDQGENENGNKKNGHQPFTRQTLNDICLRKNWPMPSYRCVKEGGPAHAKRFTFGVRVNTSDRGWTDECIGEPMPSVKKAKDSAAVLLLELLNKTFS

DCL1 = DCL1 (Arabidopsis thaliana, UniProt Q9SP32 1-1909); assay: SPR; 50 mM NaCl; SPR (Biacore T100): 20 mM Tris-HCl pH 7.0, 50 or 150 mM NaCl, 2 mM β-ME (0.005% P20 for SE variants); proteins 42-43 nM (Fig 2E), SE 20 nM (Fig 4), 16 nM DCL1 for complex; temperature not stated; settings: protein: recombinant; tags: none (His6-StrepII-SUMOstar removed); chain copies: 3; label: 5'-biotin on strand 1; fork: 40 bp duplex; 20-nt 3' tail of strand 1 and 20-nt 5' tail of strand 2 unpaired; other end blunt
Chain of DCL1 (Q9SP32 whole entry): as the sequence (Q9SP32 whole entry, stated change not applied, one chain of several) above

SE143-720 = target: T2, SE143-720 (Arabidopsis thaliana, UniProt Q9ZVD0 143-720, del1-142); assay: SPR; 50 mM NaCl, 20 nM protein; SPR (Biacore T100): 20 mM Tris-HCl pH 7.0, 50 or 150 mM NaCl, 2 mM β-ME (0.005% P20 for SE variants); proteins 42-43 nM (Fig 2E), SE 20 nM (Fig 4), 16 nM DCL1 for complex; temperature not stated; settings: protein: recombinant; tags: N-terminal His6; vector also has inserted myc and Strep-tag II; label: 5'-biotin on strand 1; fork: 40 bp duplex; 20-nt 3' tail of strand 1 and 20-nt 5' tail of strand 2 unpaired; other end blunt
T2 sequence: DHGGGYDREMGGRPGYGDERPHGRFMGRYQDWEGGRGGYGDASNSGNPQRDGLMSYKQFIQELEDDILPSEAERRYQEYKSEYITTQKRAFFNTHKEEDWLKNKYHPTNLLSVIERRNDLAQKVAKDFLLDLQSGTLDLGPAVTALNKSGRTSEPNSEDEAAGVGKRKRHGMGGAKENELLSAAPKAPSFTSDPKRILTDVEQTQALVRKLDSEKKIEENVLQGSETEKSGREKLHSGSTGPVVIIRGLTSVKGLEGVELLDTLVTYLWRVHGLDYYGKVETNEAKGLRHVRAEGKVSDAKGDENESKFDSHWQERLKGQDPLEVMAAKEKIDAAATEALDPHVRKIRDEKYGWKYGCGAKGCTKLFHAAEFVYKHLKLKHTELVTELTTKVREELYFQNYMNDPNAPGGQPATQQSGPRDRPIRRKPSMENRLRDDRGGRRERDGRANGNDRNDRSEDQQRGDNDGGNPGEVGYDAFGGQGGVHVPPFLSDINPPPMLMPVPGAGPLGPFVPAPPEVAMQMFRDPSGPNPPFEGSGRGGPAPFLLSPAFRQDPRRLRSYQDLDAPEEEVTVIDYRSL

DCL1;SE (His-tagged) = DCL1;SE (His-tagged) (Arabidopsis thaliana;Arabidopsis …, UniProt Q9SP32;Q9ZVD0 1-1909;1-720, |); assay: SPR; SE injected on preformed DCL1/RNA complex, 50 mM NaCl; SE:DCL1 2.4:1; SPR (Biacore T100): 20 mM Tris-HCl pH 7.0, 50 or 150 mM NaCl, 2 mM β-ME (0.005% P20 for SE variants); proteins 42-43 nM (Fig 2E), SE 20 nM (Fig 4), 16 nM DCL1 for complex; temperature not stated; settings: protein: recombinant;recombinant; tags: none (His6-StrepII-SUMOstar removed);N-terminal His6; vector also has inserted myc and Strep-tag II; label: 5'-biotin on strand 1; fork: 40 bp duplex; 20-nt 3' tail of strand 1 and 20-nt 5' tail of strand 2 unpaired; other end blunt
Chain of DCL1;SE (His-tagged) (Q9SP32 whole entry, one chain of several): as the sequence (Q9SP32 whole entry, stated change not applied, one chain of several) above

B1: forked-RNA (dsRNA)
RNA 1: CAACCCAAGAUAGAUCAUGCAGGCAGCUUCAUCAGAUGCCGCUCCCUCUUUUUUUCUCUA
RNA 2: GCUCCCUCUUUUUUUCUCUAGGCAUCUGAUGAAGCUGCCUGCAUGAUCUAUCUUGGGUUG
B1: binds (SEΔ497-547); binds (DCL1;SE1-701); binds (DCL1). The binding signal (SE143-720) was 6 fold reduction vs wild-type SE and the binding result (DCL1;SE (His-tagged)) was “binds”.
